Two molecules from paper PMC7553779 (eLife, 2020) can be followed below.

Sequences and labels used below:
T1: chicken acid-sensing ion channel 1 (cASIC1), full-length (chicken, UniProt Q1XA76 1-527)
T1 sequence (looked up): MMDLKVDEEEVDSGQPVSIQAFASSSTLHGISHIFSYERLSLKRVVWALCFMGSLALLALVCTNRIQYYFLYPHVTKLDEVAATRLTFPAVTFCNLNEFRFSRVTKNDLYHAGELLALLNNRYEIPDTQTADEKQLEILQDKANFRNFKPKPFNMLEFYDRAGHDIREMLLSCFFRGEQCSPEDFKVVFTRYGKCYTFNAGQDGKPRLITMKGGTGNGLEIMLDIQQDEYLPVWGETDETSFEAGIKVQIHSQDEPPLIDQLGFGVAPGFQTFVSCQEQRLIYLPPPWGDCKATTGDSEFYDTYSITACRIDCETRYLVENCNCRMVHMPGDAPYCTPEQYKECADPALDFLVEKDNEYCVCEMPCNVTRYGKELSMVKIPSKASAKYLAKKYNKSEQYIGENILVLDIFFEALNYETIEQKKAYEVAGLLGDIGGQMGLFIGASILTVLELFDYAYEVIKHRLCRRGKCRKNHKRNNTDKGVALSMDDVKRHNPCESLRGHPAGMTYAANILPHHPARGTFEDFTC

T2: human acid-sensing ion channel 1a (hASIC1a), full-length, wild type (human, UniProt P78348-2 1-528)
T2 sequence (looked up): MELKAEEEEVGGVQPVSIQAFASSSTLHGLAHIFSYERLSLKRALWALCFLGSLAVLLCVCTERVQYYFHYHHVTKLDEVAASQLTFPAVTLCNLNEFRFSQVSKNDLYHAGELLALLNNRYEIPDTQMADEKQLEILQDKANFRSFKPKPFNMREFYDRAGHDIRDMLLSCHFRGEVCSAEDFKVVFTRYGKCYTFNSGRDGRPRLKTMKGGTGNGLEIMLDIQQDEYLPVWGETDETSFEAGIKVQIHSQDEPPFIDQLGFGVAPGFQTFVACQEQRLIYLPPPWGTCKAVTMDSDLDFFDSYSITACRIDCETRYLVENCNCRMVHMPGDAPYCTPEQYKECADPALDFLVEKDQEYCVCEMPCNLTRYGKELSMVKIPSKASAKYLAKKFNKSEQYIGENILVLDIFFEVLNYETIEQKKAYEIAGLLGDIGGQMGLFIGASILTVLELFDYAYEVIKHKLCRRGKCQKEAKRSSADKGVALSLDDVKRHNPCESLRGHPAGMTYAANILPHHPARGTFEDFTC

B1: Mambalgin1 (Mamba1) (peptide)
chain: LKCYQHGKVVTCHRDMKFCYHNTGMPFRNLKLILQGCSSSCSETENNKCCSTDRCNK
notes: also called wild-type Mamba1
B2: truncated human acid-sensing ion channel 1a with the 60 carboxyl terminal residues removed (hASIC1a^ΔC) (domain or fragment)
chain: MELKAEEEEVGGVQPVSIQAFASSSTLHGLAHIFSYERLSLKRALWALCFLGSLAVLLCVCTERVQYYFHYHHVTKLDEVAASQLTFPAVTLCNLNEFRFSQVSKNDLYHAGELLALLNNRYEIPDTQMADEKQLEILQDKANFRSFKPKPFNMREFYDRAGHDIRDMLLSCHFRGEVCSAEDFKVVFTRYGKCYTFNSGRDGRPRLKTMKGGTGNGLEIMLDIQQDEYLPVWGETDETSFEAGIKVQIHSQDEPPFIDQLGFGVAPGFQTFVACQEQRLIYLPPPWGTCKAVTMDSDLDFFDSYSITACRIDCETRYLVENCNCRMVHMPGDAPYCTPEQYKECADPALDFLVEKDQEYCVCEMPCNLTRYGKELSMVKIPSKASAKYLAKKFNKSEQYIGENILVLDIFFEVLNYETIEQKKAYEIAGLLGDIGGQMGLFIGASILTVLELFDYAYEVIKHKLCRR
notes: Trimer in the cryo-EM structures; […]; also called apo-hASIC1a^ΔC

Data set [1] has as its target T1, chicken acid-sensing ion channel 1 …. The data set can be described thus: cell-based or functional assay.
Data set [2] concerns the target T2, human acid-sensing ion channel 1a …. The data set can be described thus: cell-based or functional assay.
The target in data set [3] is B2. The data set can be described thus: cryo-EM structure; hASIC1a^ΔC-Mamba1 complex, toxin added in a 6:1 molar ratio of toxin to channel, 1 hr at 4°C, 20 mM Tris pH 8.0, 200 mM NaCl, 0.05% DDM, 0.01% CHS; 3.1 mg/ml; 3.90 Å. As to conditions: both partners purified.
Data set [4] concerns the molecule itself. The data set can be described thus: cryo-EM structure; apo-hASIC1a^ΔC, single-particle cryo-EM, 2.7 mg/ml, 20 mM Tris pH 8.0, 200 mM NaCl, 0.05% DDM, 0.01% CHS; C3 symmetry imposed; 3.56 Å.

Turning to B1, the “IC50 of inhibition of acid-evoked (pH 6.0) currents, whole-cell patch clamp, full-length cASIC1 in CHO cells” value in data set [1] was 124 nM. Besides, in data set [2], the “IC50 of inhibition of acid-evoked (pH 6.0) currents, whole-cell patch clamp, full-length hASIC1a in CHO cells” value was determined as 197 nM and the “IC50 of inhibition of full-length hASIC1a in CHO cells ('the reported IC50', Figure 1b)” value came out at 149 nM. Further, in data set [3], the “stoichiometry N” value was 1 Mamba1 per hASIC1a^ΔC subunit.

In the case of B2, the “stoichiometry N” value in data set [4] stood at 3.
